The source of these data is paper PMC5342261.

In one assay the target is CH98. Kind of assay: ELISA. For orientation: An ELISA detects its analyte on a solid surface through an enzyme-linked reagent.
The target of a further assay is HJ16. Description: ELISA.
Assay [1] has as its target VRC01. Description: ELISA.
The target of a further assay is B6. Kind of assay: yeast display.
Another assay addresses PGV04. Description: yeast display.
Assay [2] concerns the target VRC01. Kind of assay: yeast display.
A further assay concerns the target B12. Kind of assay: yeast display.

Take AE.A244gp120 D368R: the percent of parent with CH98 was determined as 0%; with HJ16, 98%; in the assay with VRC01 [1], 23%.

Regarding AE.A244gp120 I371del; P363N, the percent of parent with CH98 stood at 0%; with HJ16, 80%.

As to AE.A244gp120 N276A, the percent of parent in the assay with CH98 turned out to be 0%; in the assay with VRC01 [1], 51%.

For AE.A244gp120 T278A, the values for the percent of parent with CH98, with HJ16 and in the assay with VRC01 [1] were 19%, 13% and 96%, respectively.

As to “B.YU2gp120 core (ΔV1, V2, V3 loops) D368R”, the percent of parent in the assay with B6 stood at 53%; in the assay with PGV04 it was 7%; with VRC01 [2] it was 13%.

For “B.YU2gp120 core (ΔV1, V2, V3 loops) D397F”, the percent of parent with B12 stood at 91%; with B6 it was 94%; in the assay with VRC01 [2], 73%.

Regarding “B.YU2gp120 core (ΔV1, V2, V3 loops) E269G”, the percent of parent came to 95% with B12, 75% in the assay with B6, 83% with PGV04 and 82% in the assay with VRC01 [2].

For “B.YU2gp120 core (ΔV1, V2, V3 loops) G327R”, the percent of parent with B12 amounted to 90%; with B6, 95%; with PGV04, 89%; with VRC01 [2], 95%.

Turning to “B.YU2gp120 core (ΔV1, V2, V3 loops) G434K”, the percent of parent was 76% in the assay with B12, 85% with B6, 85% with PGV04 and 85% with VRC01 [2].

For “B.YU2gp120 core (ΔV1, V2, V3 loops) G459E”, the percent of parent turned out to be 105% in the assay with B12, 99% with B6, 8% with PGV04 and 28% with VRC01 [2].

With “B.YU2gp120 core (ΔV1, V2, V3 loops) G473R”, the percent of parent with B12 came out at 113%; with B6, 78%; with PGV04, 17%; in the assay with VRC01 [2] it was 19%.

On to “B.YU2gp120 core (ΔV1, V2, V3 loops) H216Y”, for which the percent of parent with B12 is 108%; with B6 it was 99%; with PGV04 it was 96%; with VRC01 [2] it was 104%.

Consider “B.YU2gp120 core (ΔV1, V2, V3 loops) I467K”, for which the percent of parent in the assay with B12 is 51%; with B6, 93%; with PGV04, 43%; with VRC01 [2], 48%.

In the case of “B.YU2gp120 core (ΔV1, V2, V3 loops) K121T”, the percent of parent in the assay with B12 worked out at 100%; in the assay with B6 it was 102%; in the assay with PGV04 it was 73%; in the assay with VRC01 [2], 80%.

Regarding “B.YU2gp120 core (ΔV1, V2, V3 loops) K231T”, the percent of parent in the assay with B12 amounted to 98%; with B6 it was 94%; with VRC01 [2] it was 74%.

Take “B.YU2gp120 core (ΔV1, V2, V3 loops) K282V”: the percent of parent with B12 was 51%; with B6 it was 61%; with PGV04, 74%; with VRC01 [2], 50%.

On to “B.YU2gp120 core (ΔV1, V2, V3 loops) K490S”, for which the percent of parent with B12 amounted to 89%; with VRC01 [2], 75%.

Regarding “B.YU2gp120 core (ΔV1, V2, V3 loops) L265R”, the percent of parent in the assay with B12 stood at 91%; with B6, 85%; in the assay with PGV04 it was 79%; with VRC01 [2] it was 88%.

Consider “B.YU2gp120 core (ΔV1, V2, V3 loops) L405D”, for which the percent of parent with B12 is 80%; in the assay with B6, 99%; in the assay with PGV04 it was 104%; with VRC01 [2], 109%.

As for “B.YU2gp120 core (ΔV1, V2, V3 loops) N197K”, the percent of parent is 89% with B12, 93% with B6, 86% in the assay with PGV04 and 86% with VRC01 [2].

With “B.YU2gp120 core (ΔV1, V2, V3 loops) Q337V”, the percent of parent was determined as 88% with B12, 87% with B6, 89% with PGV04 and 91% with VRC01 [2].

Turning to “B.YU2gp120 core (ΔV1, V2, V3 loops) Q344V”, the percent of parent in the assay with B12 was 94%; in the assay with B6 it was 96%; with PGV04 it was 79%; in the assay with VRC01 [2], 82%.

For the substance “B.YU2gp120 core (ΔV1, V2, V3 loops) Q442V”, the percent of parent with B12 is 72%; with B6 it was 95%; with PGV04, 92%; with VRC01 [2] it was 97%.

For the substance “B.YU2gp120 core (ΔV1, V2, V3 loops) R403V”, the percent of parent came to 76% in the assay with B12, 96% with B6, 94% in the assay with PGV04 and 99% in the assay with VRC01 [2].

Take “B.YU2gp120 core (ΔV1, V2, V3 loops) R412V”: the percent of parent in the assay with B12 came out at 87%; with B6 it was 99%; in the assay with PGV04, 100%; in the assay with VRC01 [2], 104%.

For the substance “B.YU2gp120 core (ΔV1, V2, V3 loops) R419G”, the percent of parent with B12 stood at 13%; in the assay with B6 it was 98%; with PGV04 it was 65%.

On to “B.YU2gp120 core (ΔV1, V2, V3 loops) R476V”, for which the percent of parent with B12 turned out to be 97%; with B6, 13%; with PGV04, 91%; with VRC01 [2], 62%.

In the case of “B.YU2gp120 core (ΔV1, V2, V3 loops) S365K”, the percent of parent with B12 is 28%; with B6, 97%; in the assay with PGV04 it was 8%; with VRC01 [2], 31%.

For the substance “B.YU2gp120 core (ΔV1, V2, V3 loops) S446K”, the percent of parent with B12 was 113%; with B6, 100%; in the assay with PGV04, 104%; in the assay with VRC01 [2] it was 108%.

Turning to “B.YU2gp120 core (ΔV1, V2, V3 loops) T240K”, the percent of parent in the assay with B12 worked out at 101%; in the assay with B6 it was 95%; with PGV04, 88%; with VRC01 [2], 92%.

As to “B.YU2gp120 core (ΔV1, V2, V3 loops) T278K”, the percent of parent with B12 came out at 89%; in the assay with B6, 98%; in the assay with PGV04, 122%; with VRC01 [2] it was 196%.

Turning to “B.YU2gp120 core (ΔV1, V2, V3 loops) T455E”, the percent of parent worked out at 14% with B12, 92% in the assay with B6, 31% with PGV04 and 49% in the assay with VRC01 [2].

Turning to “B.YU2gp120 core (ΔV1, V2, V3 loops) V200K”, the percent of parent in the assay with B12 is 94%; with B6 it was 90%; with PGV04 it was 96%; with VRC01 [2], 99%.
